Reference: patent US20240254220A1 (CENTRICSBIO, published 2024)

Experiments:
Assay in all cases: binding ELISA on coated antigen (8 µg/mL), HRP anti-Fc detection, 450 nm (Experimental Example 2.5)
[1] = molecular target: T1, CD300a antigen (12449-H08H, Sino Biological) (UniProt Q9UGN4 18-178)
T1 sequence (looked up): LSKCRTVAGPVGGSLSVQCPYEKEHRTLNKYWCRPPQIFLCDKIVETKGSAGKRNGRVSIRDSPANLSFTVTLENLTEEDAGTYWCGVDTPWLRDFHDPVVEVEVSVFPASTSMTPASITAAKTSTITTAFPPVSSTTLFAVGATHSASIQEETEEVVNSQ
Experimental: (§1) In order to identify that the anti-CD300c monoclonal antibody CL7 specifically binds only to CD300c without binding to other B7 family proteins, binding ELISA was performed. More specifically, each of CD300c antigen, CD300a antigen, or seven B7 family protein antigens (PD-L1 [B7-H1] (Sino Biological), ICOS Ligand[B7-H2] (Sino Biological), CD276[B7-H3] (Sino Biological), B7-H4 (Sino Biological), CD80[B7-1] (Sino Biological), CD86[B7-2] (Sino Biological), CD273[PD-L2] (Sino Biological)) in a coating buffer (0.1 M sodium carbonate, pH 9.0) was coated on an ELISA plate at a concentration of 8 μg/mL per well, and then bound to the plate by incubation at 2° C. to 8° C. overnight. The unbound antigen was removed by washing with PBST three times, and then […] of blocking buffer (5% skim milk in PBST) was added to each well. Subsequently, blocking was performed at room temperature for 1 hour, followed by washing again with PBST. Thereafter, CL7 was diluted in quadruplicate with PBS, incubated with the antigen at room temperature for 1 hour for antigen binding 1 hour later, and washed three times with PBST. Then, a secondary antibody (HRP-conjugated anti-Fc IgG) diluted to 4 μg/mL in blocking buffer was added thereto, followed by incubation at room temperature for 1 hour. Subsequently, the unbound antibody for detection was removed using PBST, and then a TMB solution was added thereto, followed by incubation for 10 minutes for development. Then, 2 N sulfuric acid solution was added to terminate the development reaction, and the absorbance was measured at 450 nm to identify the antibody specifically binding to the CD300c antigen.

[2] = molecular target: PD-L1 [B7-H1] (Sino Biological) (UniProt Q9NZQ7 19-239)
Chain of PD-L1 [B7-H1] (Sino Biological) (Q9NZQ7 19-239 limits assumed): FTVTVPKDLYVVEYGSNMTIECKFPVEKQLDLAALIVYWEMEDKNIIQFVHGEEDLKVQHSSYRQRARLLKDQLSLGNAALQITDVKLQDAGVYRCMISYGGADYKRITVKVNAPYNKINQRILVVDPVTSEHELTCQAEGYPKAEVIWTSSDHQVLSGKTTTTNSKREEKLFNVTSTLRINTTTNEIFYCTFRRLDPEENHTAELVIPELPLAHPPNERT
Experimental: as §1

[3] = molecular target: T2, ICOS Ligand[B7-H2] (Sino Biological) (UniProt O75144 19-258, limits assumed)
T2 sequence (looked up): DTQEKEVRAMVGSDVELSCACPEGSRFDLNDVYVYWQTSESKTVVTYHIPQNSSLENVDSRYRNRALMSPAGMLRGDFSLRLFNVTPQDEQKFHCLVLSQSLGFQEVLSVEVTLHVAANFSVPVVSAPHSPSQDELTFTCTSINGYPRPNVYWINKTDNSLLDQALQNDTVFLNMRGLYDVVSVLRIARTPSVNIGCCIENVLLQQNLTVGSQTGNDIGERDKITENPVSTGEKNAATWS
Experimental: as §1

[4] = molecular target: T3, CD276[B7-H3] (Sino Biological) (UniProt Q5ZPR3 29-461, limits assumed)
T3 sequence (looked up): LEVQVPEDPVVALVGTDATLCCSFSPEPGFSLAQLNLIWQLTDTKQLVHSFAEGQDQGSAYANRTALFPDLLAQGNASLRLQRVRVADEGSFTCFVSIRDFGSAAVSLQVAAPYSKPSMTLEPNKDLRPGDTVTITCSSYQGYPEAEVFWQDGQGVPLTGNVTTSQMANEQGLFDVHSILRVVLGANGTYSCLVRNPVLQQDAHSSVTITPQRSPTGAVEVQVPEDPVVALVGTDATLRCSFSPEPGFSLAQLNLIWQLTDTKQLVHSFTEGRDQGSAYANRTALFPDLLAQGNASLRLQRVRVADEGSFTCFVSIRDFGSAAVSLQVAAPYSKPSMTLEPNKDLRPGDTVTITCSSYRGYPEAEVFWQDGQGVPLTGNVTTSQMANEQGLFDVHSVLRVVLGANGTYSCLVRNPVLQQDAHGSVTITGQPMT
Experimental: as §1

B7-H4 (Sino Biological) = molecular target: T4, B7-H4 (Sino Biological) (UniProt Q7Z7D3 25-258, limits assumed)
T4 sequence (looked up): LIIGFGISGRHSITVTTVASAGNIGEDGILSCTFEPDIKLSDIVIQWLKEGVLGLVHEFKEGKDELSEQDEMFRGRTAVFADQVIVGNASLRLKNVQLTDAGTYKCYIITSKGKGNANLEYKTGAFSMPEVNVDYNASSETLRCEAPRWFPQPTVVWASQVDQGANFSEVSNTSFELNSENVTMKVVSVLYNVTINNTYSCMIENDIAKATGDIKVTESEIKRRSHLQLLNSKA
Experimental: as §1

[5] = molecular target: T5, CD86[B7-2] (Sino Biological) (UniProt P42081 24-245, limits assumed)
T5 sequence (looked up): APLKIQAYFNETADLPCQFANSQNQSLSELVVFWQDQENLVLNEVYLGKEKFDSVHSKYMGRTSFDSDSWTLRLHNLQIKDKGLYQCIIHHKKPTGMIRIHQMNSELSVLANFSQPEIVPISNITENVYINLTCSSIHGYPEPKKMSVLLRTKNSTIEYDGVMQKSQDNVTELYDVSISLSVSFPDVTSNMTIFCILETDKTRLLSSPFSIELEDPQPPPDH
Experimental: as §1

[6] = molecular target: T6, CD273[PD-L2] (Sino Biological) (UniProt Q9BQ51 20-219, limits assumed)
T6 sequence (looked up): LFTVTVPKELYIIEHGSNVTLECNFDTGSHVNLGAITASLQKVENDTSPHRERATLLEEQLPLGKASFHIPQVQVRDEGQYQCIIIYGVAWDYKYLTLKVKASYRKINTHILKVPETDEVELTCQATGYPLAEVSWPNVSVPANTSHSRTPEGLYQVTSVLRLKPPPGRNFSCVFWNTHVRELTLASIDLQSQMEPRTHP
Experimental: as §1

B1: CL7 (antibody, V domains shown)
VH: EVQLLESGGGLVQPGGSLRLSCAASGFTFSRYAMSWVRQAPGKGLEWVSAISGSGGSTYYADSVKGRFTISRDNSKNTLYLQMNSLRAEDTAVYYCARSSQGIFDIWGQGTLVTVSS
VL: QSVLTQPPSASGTPGQRVTISCSGNNIGTRRVHWYQQLPDTAPKLLIYSKNNRPSGVPDRFSGSKSGTSASLAISGLRSEDEADYYCAAWDDSLSGPVFGGGTKLTVL
notes: detected with anti-human IgG (H+L) and anti-Fc IgG; also called anti-CD300c monoclonal antibody CL7; anti-CD300c monoclonal antibody (CL7)
binding result [1]: no binding (tested: log10 about 0.4 ug/ml (about 2.5 ug/ml)) | binding result [2]: no binding (tested: log10 about 0.4 ug/ml (about 2.5 ug/ml)) | binding result [3]: no binding (tested: log10 about 0.4 ug/ml (about 2.5 ug/ml)) | binding result [4]: no binding (tested: log10 about 0.4 ug/ml (about 2.5 ug/ml)) | binding result (B7-H4 (Sino Biological)): no binding (tested: log10 about 0.4 ug/ml (about 2.5 ug/ml)) | binding result [5]: no binding (tested: log10 about 0.4 ug/ml (about 2.5 ug/ml)) | binding result [6]: no binding (tested: log10 about 0.4 ug/ml (about 2.5 ug/ml))
